Data taken from IntAct's records for PubMed 31515488.

B1: Tuftelin-interacting protein 11 (Homo sapiens), Q9UBB9 (parent)
chain: MSLSHLYRDGEGRIDDDDDERENFEITDWDLQNEFNPNRQRHWQTKEEATYGVWAERDSDDERPSFGGKRARDYSAPVNFISAGLKKGAAEEAELEDSDDEEKPVKQDDFPKDFGPRKLKTGGNFKPSQKGFAGGTKSFMDFGSWERHTKGIGQKLLQKMGYVPGRGLGKNAQGIINPIEAKQRKGKGAVGAYGSERTTQSMQDFPVVDSEEEAEEEFQKELSQWRKDPSGSKKKPKYSYKTVEELKAKGRISKKLTAPQKELSQVKVIDMTGREQKVYYSYSQISHKHNVPDDGLPLQSQQLPQSGKEAKAPGFALPELEHNLQLLIDLTEQEIIQNDRQLQYERDMVVNLFHELEKMTEVLDHEERVISNLSKVLEMVEECERRMQPDCSNPLTLDECARIFETLQDKYYEEYRMSDRVDLAVAIVYPLMKEYFKEWDPLKDCTYGTEIISKWKSLLENDQLLSHGGQDLSADAFHRLIWEVWMPFVRNIVTQWQPRNCDPMVDFLDSWVHIIPVWILDNILDQLIFPKLQKEVENWNPLTDTVPIHSWIHPWLPLMQARLEPLYSPIRSKLSSALQKWHPSDSSAKLILQPWKDVFTPGSWEAFMVKNIVPKLGMCLGELVINPHQQHMDAFYWVIDWEGMISVSSLVGLLEKHFFPKWLQVLCSWLSNSPNYEEITKWYLGWKSMFSDQVLAHPSVKDKFNEALDIMNRAVSSNVGAYMQPGARENIAYLTHTERRKDFQYEAMQERREAENMAQRGIGVAASSVPMNFKDLIETKAEEHNIVFMPVIGKRHEGKQLYTFGRIVIYIDRGVVFVQGEKTWVPTSLQSLIDMAK

Variants of: B1
Details: with lca5l_human LCA5L

Variant	effect of a mutation on the interaction
M140V	with no effect

Variants of: B1
Details: with ccnd3_human CCND3, P30281
Sequence of ccnd3_human CCND3, P30281 (P30281 whole entry): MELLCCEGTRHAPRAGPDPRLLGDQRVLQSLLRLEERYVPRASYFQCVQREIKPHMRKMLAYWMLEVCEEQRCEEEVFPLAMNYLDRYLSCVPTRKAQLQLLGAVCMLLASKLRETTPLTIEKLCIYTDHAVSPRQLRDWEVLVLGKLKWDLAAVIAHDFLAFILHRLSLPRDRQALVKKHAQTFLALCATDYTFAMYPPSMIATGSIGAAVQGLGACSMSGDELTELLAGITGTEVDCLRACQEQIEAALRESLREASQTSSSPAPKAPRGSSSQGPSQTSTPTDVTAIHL

Variant	effect of a mutation on the interaction
M140V	with no effect

Variants of: B1
Details: with cenpu_human CENPU

Variant	effect of a mutation on the interaction
M140V	with no effect

Variants of: B1
Details: with zmat2_human ZMAT2, Q96NC0
Sequence of zmat2_human ZMAT2, Q96NC0 (Q96NC0 whole entry): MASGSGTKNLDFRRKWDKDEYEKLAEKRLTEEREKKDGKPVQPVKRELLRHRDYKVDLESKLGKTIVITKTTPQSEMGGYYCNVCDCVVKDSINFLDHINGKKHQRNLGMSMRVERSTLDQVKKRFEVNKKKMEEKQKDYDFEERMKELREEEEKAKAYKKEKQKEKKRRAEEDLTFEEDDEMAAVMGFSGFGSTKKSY

Variant	effect of a mutation on the interaction
S688L	with no effect

Variants of: B1
Details: with cox5b_human COX5B

Variant	effect of a mutation on the interaction
S688L	with no effect

Variants of: B1
Details: with txlna_human TXLNA

Variant	effect of a mutation on the interaction
S688L	with no effect

Variants of: B1
Details: with hook1_human HOOK1, Q9UJC3

Variant	effect of a mutation on the interaction
S688L	with no effect

Variants of: B1
Details: with tnnt1_human TNNT1, P13805
Sequence of tnnt1_human TNNT1, P13805 (P13805 whole entry): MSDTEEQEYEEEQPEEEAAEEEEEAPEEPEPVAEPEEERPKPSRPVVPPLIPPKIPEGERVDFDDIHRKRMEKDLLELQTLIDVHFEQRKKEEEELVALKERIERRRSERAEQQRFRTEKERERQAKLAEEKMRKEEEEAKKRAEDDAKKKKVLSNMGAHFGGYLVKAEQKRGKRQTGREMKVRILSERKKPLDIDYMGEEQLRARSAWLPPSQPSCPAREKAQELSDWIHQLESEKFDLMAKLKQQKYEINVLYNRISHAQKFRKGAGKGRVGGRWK

Variant	effect of a mutation on the interaction
S688L	with no effect

Variants of: B1
Details: with coq8a_human COQ8A

Variant	effect of a mutation on the interaction
S688L	with no effect

Variants of: B1
Details: with smce1_human SMARCE1, Q969G3

Variant	effect of a mutation on the interaction
S688L	with no effect

Variants of: B1
Details: with bmf_human BMF

Variant	effect of a mutation on the interaction
S688L	with no effect

Variants of: B1
Details: with fa13c_human FAM13C

Variant	effect of a mutation on the interaction
S688L	with no effect

Variants of: B1
Details: with prp31_human PRPF31, Q8WWY3
Sequence of prp31_human PRPF31, Q8WWY3 (Q8WWY3 whole entry): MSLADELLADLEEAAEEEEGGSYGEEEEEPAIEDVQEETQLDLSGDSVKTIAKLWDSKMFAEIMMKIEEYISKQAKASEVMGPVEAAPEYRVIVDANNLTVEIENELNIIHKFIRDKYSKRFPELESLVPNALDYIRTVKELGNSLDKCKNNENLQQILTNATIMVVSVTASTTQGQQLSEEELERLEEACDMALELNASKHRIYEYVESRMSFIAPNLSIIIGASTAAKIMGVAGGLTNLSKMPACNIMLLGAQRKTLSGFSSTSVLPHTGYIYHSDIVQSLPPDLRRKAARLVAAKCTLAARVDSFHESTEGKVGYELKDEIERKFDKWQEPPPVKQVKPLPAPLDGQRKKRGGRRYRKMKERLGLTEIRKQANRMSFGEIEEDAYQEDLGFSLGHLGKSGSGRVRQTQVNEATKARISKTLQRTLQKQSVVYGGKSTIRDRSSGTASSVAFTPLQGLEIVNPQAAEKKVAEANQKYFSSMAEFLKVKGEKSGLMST

Variant	effect of a mutation on the interaction
S688L	with no effect

Variants of: B1
Details: with snw1_human SNW1, Q13573

Variant	effect of a mutation on the interaction
S688L	with no effect

Variants of: B1
Details: with sfr1_human SFR1, Q86XK3
Sequence of sfr1_human SFR1, Q86XK3 (Q86XK3 whole entry): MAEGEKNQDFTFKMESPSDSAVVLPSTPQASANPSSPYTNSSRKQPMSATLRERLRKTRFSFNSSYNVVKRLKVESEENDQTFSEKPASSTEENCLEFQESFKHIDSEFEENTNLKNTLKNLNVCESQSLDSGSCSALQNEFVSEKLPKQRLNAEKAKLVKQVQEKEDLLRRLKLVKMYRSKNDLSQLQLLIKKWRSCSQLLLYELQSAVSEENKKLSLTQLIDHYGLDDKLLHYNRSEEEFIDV

Variant	effect of a mutation on the interaction
S688L	with no effect

Variants of: B1
Details: with zfy26_human ZFYVE26, Q68DK2
Sequence of zfy26_human ZFYVE26, Q68DK2 (Q68DK2 whole entry): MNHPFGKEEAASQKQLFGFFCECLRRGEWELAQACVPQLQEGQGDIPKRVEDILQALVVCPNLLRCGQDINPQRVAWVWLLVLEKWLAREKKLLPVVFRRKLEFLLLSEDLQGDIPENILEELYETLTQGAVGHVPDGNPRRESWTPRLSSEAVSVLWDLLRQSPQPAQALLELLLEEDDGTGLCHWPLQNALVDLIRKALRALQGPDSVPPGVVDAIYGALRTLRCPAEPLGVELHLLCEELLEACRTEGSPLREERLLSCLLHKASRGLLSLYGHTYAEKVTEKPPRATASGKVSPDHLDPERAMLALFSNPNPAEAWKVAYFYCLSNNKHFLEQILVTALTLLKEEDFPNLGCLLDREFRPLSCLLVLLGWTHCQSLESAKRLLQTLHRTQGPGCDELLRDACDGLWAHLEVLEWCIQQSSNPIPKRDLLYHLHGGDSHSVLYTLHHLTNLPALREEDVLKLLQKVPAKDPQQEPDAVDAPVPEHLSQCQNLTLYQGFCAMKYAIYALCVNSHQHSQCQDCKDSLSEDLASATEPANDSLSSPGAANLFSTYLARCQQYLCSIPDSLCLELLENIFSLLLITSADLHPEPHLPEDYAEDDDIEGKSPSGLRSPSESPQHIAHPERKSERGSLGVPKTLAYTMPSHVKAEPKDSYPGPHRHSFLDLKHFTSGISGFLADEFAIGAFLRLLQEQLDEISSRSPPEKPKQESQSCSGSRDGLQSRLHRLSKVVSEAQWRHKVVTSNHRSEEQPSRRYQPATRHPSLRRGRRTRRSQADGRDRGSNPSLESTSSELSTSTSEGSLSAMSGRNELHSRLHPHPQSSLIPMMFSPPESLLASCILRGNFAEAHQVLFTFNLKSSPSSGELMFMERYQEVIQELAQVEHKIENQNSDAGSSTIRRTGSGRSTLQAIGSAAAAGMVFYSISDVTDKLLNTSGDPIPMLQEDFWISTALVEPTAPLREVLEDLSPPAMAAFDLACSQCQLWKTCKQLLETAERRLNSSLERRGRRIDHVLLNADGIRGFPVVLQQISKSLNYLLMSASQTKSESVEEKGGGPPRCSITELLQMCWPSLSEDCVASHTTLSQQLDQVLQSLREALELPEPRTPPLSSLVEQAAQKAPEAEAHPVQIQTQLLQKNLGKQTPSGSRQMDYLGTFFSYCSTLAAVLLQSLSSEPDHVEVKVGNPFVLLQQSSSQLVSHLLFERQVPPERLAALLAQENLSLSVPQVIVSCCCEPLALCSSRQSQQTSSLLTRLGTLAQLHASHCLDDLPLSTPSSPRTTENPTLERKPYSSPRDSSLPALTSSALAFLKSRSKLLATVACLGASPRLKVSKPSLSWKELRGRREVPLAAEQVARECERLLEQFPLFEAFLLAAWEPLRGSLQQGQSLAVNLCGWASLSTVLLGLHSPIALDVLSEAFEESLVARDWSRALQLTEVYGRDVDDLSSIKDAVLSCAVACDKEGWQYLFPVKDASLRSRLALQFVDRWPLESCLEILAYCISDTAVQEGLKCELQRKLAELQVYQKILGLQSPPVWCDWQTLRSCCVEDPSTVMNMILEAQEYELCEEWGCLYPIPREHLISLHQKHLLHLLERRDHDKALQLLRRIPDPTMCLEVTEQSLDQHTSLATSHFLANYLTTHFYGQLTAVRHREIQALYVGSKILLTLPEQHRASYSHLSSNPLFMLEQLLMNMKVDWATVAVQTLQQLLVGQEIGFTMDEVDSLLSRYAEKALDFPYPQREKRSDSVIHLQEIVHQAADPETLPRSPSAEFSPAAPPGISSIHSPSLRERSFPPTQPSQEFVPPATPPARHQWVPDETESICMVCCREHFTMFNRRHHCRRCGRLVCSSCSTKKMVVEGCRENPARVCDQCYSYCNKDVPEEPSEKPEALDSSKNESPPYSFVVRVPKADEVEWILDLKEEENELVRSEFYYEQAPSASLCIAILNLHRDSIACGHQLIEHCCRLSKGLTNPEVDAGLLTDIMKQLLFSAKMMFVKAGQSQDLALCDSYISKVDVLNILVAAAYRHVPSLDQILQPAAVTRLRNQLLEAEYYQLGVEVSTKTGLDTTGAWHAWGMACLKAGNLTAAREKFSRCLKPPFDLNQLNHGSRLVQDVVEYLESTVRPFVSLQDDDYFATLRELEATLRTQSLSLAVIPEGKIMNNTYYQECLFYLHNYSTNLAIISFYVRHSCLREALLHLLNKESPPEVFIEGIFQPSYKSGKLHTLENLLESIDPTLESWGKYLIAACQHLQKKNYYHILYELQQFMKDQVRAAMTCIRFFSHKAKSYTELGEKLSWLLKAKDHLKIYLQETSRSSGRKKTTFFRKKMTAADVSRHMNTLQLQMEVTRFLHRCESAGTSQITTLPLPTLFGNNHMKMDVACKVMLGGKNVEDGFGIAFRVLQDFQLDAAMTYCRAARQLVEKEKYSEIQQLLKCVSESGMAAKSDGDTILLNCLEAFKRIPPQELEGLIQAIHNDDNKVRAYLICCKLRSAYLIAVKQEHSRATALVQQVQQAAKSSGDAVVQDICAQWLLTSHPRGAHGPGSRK

Variant	effect of a mutation on the interaction
S688L	with no effect

Variants of: B1
Details: with abi2_human ABI2, Q9NYB9
Sequence of abi2_human ABI2, Q9NYB9 (Q9NYB9 whole entry): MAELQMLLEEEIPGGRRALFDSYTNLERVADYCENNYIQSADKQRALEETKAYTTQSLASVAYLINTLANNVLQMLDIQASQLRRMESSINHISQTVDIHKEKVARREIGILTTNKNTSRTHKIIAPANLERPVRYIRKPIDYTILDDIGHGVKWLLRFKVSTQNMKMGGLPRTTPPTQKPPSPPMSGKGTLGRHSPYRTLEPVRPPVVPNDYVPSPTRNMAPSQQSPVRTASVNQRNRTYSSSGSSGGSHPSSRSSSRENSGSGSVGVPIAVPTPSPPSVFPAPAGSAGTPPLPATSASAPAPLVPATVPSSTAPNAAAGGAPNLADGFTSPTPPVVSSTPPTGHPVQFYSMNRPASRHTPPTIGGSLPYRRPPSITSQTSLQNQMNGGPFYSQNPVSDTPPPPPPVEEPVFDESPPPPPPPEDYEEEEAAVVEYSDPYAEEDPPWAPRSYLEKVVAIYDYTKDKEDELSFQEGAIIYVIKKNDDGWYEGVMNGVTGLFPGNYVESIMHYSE

Variant	effect of a mutation on the interaction
S688L	with no effect

Variants of: B1
Details: with cc121_human CCDC121, Q6ZUS5
Sequence of cc121_human CCDC121, Q6ZUS5 (Q6ZUS5 whole entry): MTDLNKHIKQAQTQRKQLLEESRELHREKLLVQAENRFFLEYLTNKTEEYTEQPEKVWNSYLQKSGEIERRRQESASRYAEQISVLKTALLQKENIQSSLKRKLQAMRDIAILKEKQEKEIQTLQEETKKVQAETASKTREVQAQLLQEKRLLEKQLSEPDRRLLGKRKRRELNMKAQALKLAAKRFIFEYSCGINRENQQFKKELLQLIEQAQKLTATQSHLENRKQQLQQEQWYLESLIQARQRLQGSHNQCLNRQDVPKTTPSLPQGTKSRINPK

Variant	effect of a mutation on the interaction
S688L	with no effect

Variants of: B1
Details: with KRT6A

Variant	effect of a mutation on the interaction
S688L	with no effect
